{"source": "paper PMC9482650", "about": "“Quantitative fragmentomics allow affinity mapping of interactomes” (Nature Communications, 2022)", "molecules": {"B1": {"name": "E6: wild-type HPV16 E6 oncoprotein stably expressed in HEK293T cells (protein, UniProt P03126 1-158, looked up)", "chain": "MHQKRTAMFQDPQERPRKLPQLCTELQTTIHDIILECVYCKQQLLRREVYDFAFRDLCIVYRDGNPYAVCDKCLKFYSKISEYRHYCYSLYGTTLEQQYNKPLCDLLIRCINCQKPLCPEEKQRHLDKKQRFHNIRGRWTGRCMSCCRSSRTRRETQL", "modifications": "full-length", "notes": "wild-type HPV16 E6 oncoprotein stably expressed in HEK293T cells"}}, "key": {"HEK293T cells": {"system": "HEK293T cells", "experiment": "RT-qPCR of mRNA levels in stable cell lines", "format": "cell-based, human", "settings": "source data of Suppl Figure 4 B, stable HEK293T cell line; for DLG1 relative mRNA level / GFP relative mRNA level / MAGI1 relative mRNA level / RPLP0 relative mRNA level / SCRIB relative mRNA level / SNTB2 relative mRNA level / SNX27 relative mRNA level / SYNJ2BP relative mRNA level / TAX1BP3 relative mRNA level / p53 relative mRNA level: IRES control line about 1", "protocol": "Cells were plated on 6-well plates. When they reached confluency, RNA was isolated by using Qiagen RNeasy Mini kit (#74104). On-column DNase digestion was done by using Qiagen RNase-Free DNase Set (#79254). 2 μg total RNA per sample was transcribed to cDNA by using SuperScript IV kit (Invitrogen, #18091050) with random hexamer primers (Thermo Fisher #SO142) according to standard protocol. For qPCR, primers were designed with the help of Primer Blast (NCBI NIH, https://www.ncbi.nlm.nih.gov/tools/primer-blast/) choosing primers which recognize all common alternative transcripts of the given gene (Supplementary Fig 4). qPCR was done by using QuantiTect SyberGreen (Qiagen, #204143) and LightCycler II equipment (Roche). Standard ΔΔCt method was used to determine relative quantity to GAPDH. For further analyses GraphPad Prism 7 software was used."}, "HUWE1": {"system": "HUWE1", "experiment": "Label-free MS proteome of stable HEK293T cell lines", "format": "cell-based, human", "settings": "stable HEK293T cells compared to control cell line, n = 3", "source_text": "Proteins were identified by database searching using SequestHT (Thermo Fisher Scientific) with Proteome Discoverer 2.4 software (PD2.4, Thermo Fisher Scientific) on human FASTA database downloaded from SwissProt (reviewed, release 2020_11_27, 20304 entries, https://www.uniprot.org/). Precursor and fragment mass tolerances were set at 7 ppm and 0.6 Da respectively, and up to two missed cleavages were allowed. Oxidation (M, +15.995 Da) was set as variable modification, and Carbamidomethylation (C, +57.021 Da) as fixed modification. Peptides and proteins were filtered with a false discovery rate at 1%. Label-free quantification was based on the extracted ion chromatography intensity of the peptides. All samples were measured in technical triplicates. The measured extracted ion chromatogram (XIC) intensities were normalized based on median intensities of the entire dataset to correct minor loading differences. […] The detection threshold for enriched proteins in AP-MS experiments were analyzed above twofold enrichment with <0.01 P value. […] In case only a specific isoform of the detected protein contains a PBM, the identified peptide fragments were manually checked to check which isoform(s) were most likely detected. […]"}}}
{"molecule": "B1", "values": [{"measurement": "DLG1 relative mRNA level", "setting": "HEK293T cells; replicate 1", "result": 1.01}, {"measurement": "GFP relative mRNA level", "setting": "HEK293T cells; replicate 1", "result": 0.3883}, {"measurement": "MAGI1 relative mRNA level", "setting": "HEK293T cells; replicate 1", "result": 1.0722}, {"measurement": "RPLP0 relative mRNA level", "setting": "HEK293T cells; replicate 1", "result": 0.9236}, {"measurement": "SCRIB relative mRNA level", "setting": "HEK293T cells; replicate 1", "result": 0.9974}, {"measurement": "SNTB2 relative mRNA level", "setting": "HEK293T cells; replicate 1", "result": 1.021}, {"measurement": "SNX27 relative mRNA level", "setting": "HEK293T cells; replicate 1", "result": 1.06}, {"measurement": "SYNJ2BP relative mRNA level", "setting": "HEK293T cells; replicate 1", "result": 0.9318}, {"measurement": "TAX1BP3 relative mRNA level", "setting": "HEK293T cells; replicate 1", "result": 0.9978}, {"measurement": "p53 relative mRNA level", "setting": "HEK293T cells; replicate 1", "result": 1.205}, {"measurement": "DLG1 relative mRNA level", "setting": "HEK293T cells; replicate 2", "result": 0.9789}, {"measurement": "GFP relative mRNA level", "setting": "HEK293T cells; replicate 2", "result": 0.361}, {"measurement": "MAGI1 relative mRNA level", "setting": "HEK293T cells; replicate 2", "result": 1.194}, {"measurement": "RPLP0 relative mRNA level", "setting": "HEK293T cells; replicate 2", "result": 0.9077}, {"measurement": "SCRIB relative mRNA level", "setting": "HEK293T cells; replicate 2", "result": 0.9906}, {"measurement": "SNTB2 relative mRNA level", "setting": "HEK293T cells; replicate 2", "result": 1.145}, {"measurement": "SNX27 relative mRNA level", "setting": "HEK293T cells; replicate 2", "result": 1.0167}, {"measurement": "SYNJ2BP relative mRNA level", "setting": "HEK293T cells; replicate 2", "result": 1.042}, {"measurement": "TAX1BP3 relative mRNA level", "setting": "HEK293T cells; replicate 2", "result": 1.009}, {"measurement": "p53 relative mRNA level", "setting": "HEK293T cells; replicate 2", "result": 1.147}, {"measurement": "DLG1 relative mRNA level", "setting": "HEK293T cells; replicate 3", "result": 0.8765}, {"measurement": "GFP relative mRNA level", "setting": "HEK293T cells; replicate 3", "result": 0.3884}, {"measurement": "MAGI1 relative mRNA level", "setting": "HEK293T cells; replicate 3", "result": 0.864}, {"measurement": "RPLP0 relative mRNA level", "setting": "HEK293T cells; replicate 3", "result": 1.0145}, {"measurement": "SCRIB relative mRNA level", "setting": "HEK293T cells; replicate 3", "result": 0.879}, {"measurement": "SNTB2 relative mRNA level", "setting": "HEK293T cells; replicate 3", "result": 0.9516}, {"measurement": "SNX27 relative mRNA level", "setting": "HEK293T cells; replicate 3", "result": 0.8492}, {"measurement": "SYNJ2BP relative mRNA level", "setting": "HEK293T cells; replicate 3", "result": 0.8794}, {"measurement": "TAX1BP3 relative mRNA level", "setting": "HEK293T cells; replicate 3", "result": 0.9092}, {"measurement": "p53 relative mRNA level", "setting": "HEK293T cells; replicate 3", "result": 0.9937}, {"measurement": "HPV16 E6 relative mRNA level", "setting": "HEK293T cells; replicate 1", "result": 0.5053}, {"measurement": "HPV16 E6 relative mRNA level", "setting": "HEK293T cells; replicate 2", "result": 0.4889}, {"measurement": "HPV16 E6 relative mRNA level", "setting": "HEK293T cells; replicate 3", "result": 0.4569}, {"measurement": "change of HUWE1 concentration", "setting": "HUWE1", "result": "decreased by threefold"}]}
